In patent US20040209808A1 (published 2004):

Target: T1, HGPRBMY3 (human, UniProt Q9H1C0 1-372)
T1 construct: on CHO-NFAT/Galpha15 cells for the reporter assay; also called GPCR19; GPR92; not shown: its amino
Test: cell-based phage-display panning on CHO-K1 cells transfected with HGPRBMY3; sequencing of eluted phage
Experimental: On the day of panning, growth medium was discarded and cells were washed with 10 ml PBS by allowing the buffer to flow over the cells. The PBS was removed and 10 ml Tris-EDTA detaching buffer (Gibco Cat. # 13150-016; no trypsin) was added for 2 min. Plates were tapped and/or pipetted up and down to detach cells. This was done quickly to minimize the exposure of the cells to this reagent. Cells were pelleted by centrifugation at 3K, and then washed with 20 ml PBS. Cells were resuspended cells in PBS with 2% milk blocking agent plus protease inhibitor (EDTA-free; Roche Cat. # 1 873 580). For each library, cell suspensions of ˜500 μl were used. Cells were blocked for 30-60 min with gentle rocking at room temperature. The integrin-coated wells were washed 3×in PBST, then blocked with 2% BSA in PBS for 30 min or more. To preadsorb against integrin, input phage was added to the integrin-coated wells, and incubated for 30 min or more.
At this stage, the blocked parental cells were divided into the required number of aliquots (500 μl aliquot/library). The phage supernatants were added from the integrin-preadsorption step. Preadsorption against the parental cells was carried out for 30 min or more with gentle rocking. The blocked transfected cells were divided into the required number of aliquots (500 μl aliquot per library). The transfected cells were pelleted, and the supernatant was discarded. The phage supernatants from the two preadsorption steps were added, and cells were incubated with gentle rocking for 2 h or more. Cells were washed 6-8× with PBST at 5 min intervals. Each wash was performed by gently pipetting the cells up and down, and cells were centrifuged at low speed. To recover binding phage from the washed cell pellets, 500 μl 6M urea, pH 3.0 was added for 15 min. This was neutralized with 10 μl 2 M Tris (not adjusted for pH). The phage in the eluate were titered and arnplified by standard procedures (NEB protocol for PhD phage libraries). In some cases, the eluate was viscous due to the presence of chromosomal DNA.
Standard procedures were used. Phage in eluates were infected into E. coli host strain ER2738 (New England Biolabs) for all M13KE-based libraries, and cells were plated for plaques. Colonies were grown in liquid medium and analyzed by standard sequencing procedures.

T1 sequence (Q9H1C0 whole entry): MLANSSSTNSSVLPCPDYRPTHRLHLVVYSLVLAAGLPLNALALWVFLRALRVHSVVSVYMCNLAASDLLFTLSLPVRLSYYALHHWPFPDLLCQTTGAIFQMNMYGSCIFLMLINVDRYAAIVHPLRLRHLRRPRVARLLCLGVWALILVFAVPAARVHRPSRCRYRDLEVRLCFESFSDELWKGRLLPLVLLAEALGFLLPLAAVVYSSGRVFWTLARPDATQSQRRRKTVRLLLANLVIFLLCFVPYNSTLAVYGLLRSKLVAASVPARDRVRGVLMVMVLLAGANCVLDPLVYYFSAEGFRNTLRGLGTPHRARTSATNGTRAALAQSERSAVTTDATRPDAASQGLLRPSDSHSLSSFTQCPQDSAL

**Q.** Does NAKVWTVPSKPP [SEQ ID NO 21] bind?
**A.** binds

**Q.** Does ADVLHATPSEKVWLL [SEQ ID NO 24] bind?
**A.** binds

**Q.** Does INSPHELKKLWLLPP [SEQ ID NO 36] bind?
**A.** binds

**Q.** Does TTPHRVWNLPLEAQQ [SEQ ID NO 46] bind?
**A.** binds

**Q.** Does KVVDSNHKVWLVSQT [SEQ ID NO 25] bind?
**A.** binds

**Q.** Does KLWDITAPLPKP [SEQ ID NO 41] bind?
**A.** binds

**Q.** Does TSTPHRVWQLPV [SEQ ID NO 45] bind?
**A.** binds

B1: SEQ ID NO 17 (peptide)
peptide: LEAKIWVVPAPS
notes: Selected from random M13KE phage-display libraries
**Q.** Does B1 bind?
**A.** binds

**Q.** Does NHDNTKKVWILA [SEQ ID NO 26] bind?
**A.** binds

**Q.** Does KVWSLDISAPQH [SEQ ID NO 23] bind?
**A.** binds

**Q.** Does KLWTIPSNDYPP [SEQ ID NO 38] bind?
**A.** binds

**Q.** Does FPHKLWVLPVKT [SEQ ID NO 37] bind?
**A.** binds

**Q.** Does VYSKVWLLPAGQ [SEQ ID NO 19] bind?
**A.** binds

**Q.** Does KLWVPQNRPELV [SEQ ID NO 43] bind?
**A.** binds

**Q.** Does HLKVWEVRSPGP [SEQ ID NO 20] bind?
**A.** binds

**Q.** Does KVWIPTSTWLQT [SEQ ID NO 22] bind?
**A.** binds

**Q.** Does TGQTKIWYPHST [SEQ ID NO 18] bind?
**A.** binds

**Q.** Does KLWILADNFTNR [SEQ ID NO 35] bind?
**A.** binds

**Q.** Does NAKLWQIPAIPH [SEQ ID NO 42] bind?
**A.** binds

**Q.** Does KLWIPHTSQPFL [SEQ ID NO 40] bind?
**A.** binds
